The supplement of paper PMC10724198
± gives the standard deviation of the averaged measurements.

Key:
Saccharomyces cerevisiae [1] = experiment: protein stability index of tFT-peptide fusion (C-terminal peptide) (PSI (0-1 scale)); higher = more stable (slower turnover)
Description: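 MPS profiling in S. cerevisiae of the tFT-X12 degron library: putative degron peptides plus stable controls, 12 aa, fused to the C-terminus of a sfGFP-mCherry timer. Cells are FACS-sorted into 8 mCherry/sfGFP bins and deep-sequenced. PSI runs from 0 (unstable) to 1 (stable). Backgrounds are wild type, das1Δ and doa10Δ at 30 °C, and wild type, das1Δ, cdc34-1 and cdc53-1 at 37 °C; 2-3 technical replicates each.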

Saccharomyces cerevisiae [2] = experiment: as above; conditions: genetic background: wild type; temperature: 30 C
[3] = genetic background: cdc34-1, temperature: 37 C
[4] = genetic background: cdc53-1, temperature: 37 C
[5] = genetic background: das1 deletion, temperature: 30 C
[6] = genetic background: das1 deletion, temperature: 37 C
[7] = genetic background: doa10 deletion, temperature: 30 C
[8] = genetic background: wild type, temperature: 30 C
[9] = genetic background: wild type, temperature: 37 C
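Note: PSI is a weighted mean of sequencing reads over stability bins, variants kept only with over 10 reads, mCherry proximal and sfGFP distal, peptide attached via GGGS linker.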

CALLLLSVRAGQ
protein stability index (Saccharomyces cerevisiae [1]; [3]): 0.5373 ± 0.00093 | protein stability index (Saccharomyces cerevisiae [1]; [4]): 0.57 ± 0.02 | protein stability index (Saccharomyces cerevisiae [1]; [5]): 0.432 ± 0.04 | protein stability index (Saccharomyces cerevisiae [1]; [6]): 0.5912 ± 0.0029 | protein stability index (Saccharomyces cerevisiae [1]; [7]): 0.415 ± 0.032 | protein stability index (Saccharomyces cerevisiae [1]; [8]): 0.433 ± 0.024 | protein stability index (Saccharomyces cerevisiae [1]; [9]): 0.565 ± 0.02 | protein stability index (Saccharomyces cerevisiae [2]): 0.474 ± 0.019

GMGHLSNVCLKT
protein stability index (Saccharomyces cerevisiae [1]; [3]): 0.689 ± 0.008 | protein stability index (Saccharomyces cerevisiae [1]; [4]): 0.765 ± 0.0086 | protein stability index (Saccharomyces cerevisiae [1]; [5]): 0.639 ± 0.012 | protein stability index (Saccharomyces cerevisiae [1]; [6]): 0.726 ± 0.0093 | protein stability index (Saccharomyces cerevisiae [1]; [7]): 0.636 ± 0.026 | protein stability index (Saccharomyces cerevisiae [1]; [8]): 0.645 ± 0.019 | protein stability index (Saccharomyces cerevisiae [1]; [9]): 0.706 ± 0.027 | protein stability index (Saccharomyces cerevisiae [2]): 0.597 ± 0.17

LCLLFLSFFFVC
protein stability index (Saccharomyces cerevisiae [1]; [3]): 0.464 ± 0.0083 | protein stability index (Saccharomyces cerevisiae [1]; [4]): 0.515 ± 0.014 | protein stability index (Saccharomyces cerevisiae [1]; [5]): 0.374 ± 0.037 | protein stability index (Saccharomyces cerevisiae [1]; [6]): 0.555 ± 0.086 | protein stability index (Saccharomyces cerevisiae [1]; [7]): 0.229 ± 0.015 | protein stability index (Saccharomyces cerevisiae [1]; [8]): 0.234 ± 0.027 | protein stability index (Saccharomyces cerevisiae [1]; [9]): 0.361 ± 0.0065 | protein stability index (Saccharomyces cerevisiae [2]): 0.307 ± 0.0056

FGVLFFVFVFVC
protein stability index (Saccharomyces cerevisiae [1]; [3]): 0.149 ± 0.015 | protein stability index (Saccharomyces cerevisiae [1]; [4]): 0.243 ± 0.051 | protein stability index (Saccharomyces cerevisiae [1]; [5]): 0.193 ± 0.02 | protein stability index (Saccharomyces cerevisiae [1]; [6]): 0.322 ± 0.011 | protein stability index (Saccharomyces cerevisiae [1]; [7]): 0.112 ± 0.021 | protein stability index (Saccharomyces cerevisiae [1]; [8]): 0.129 ± 0.022 | protein stability index (Saccharomyces cerevisiae [1]; [9]): 0.203 ± 0.03 | protein stability index (Saccharomyces cerevisiae [2]): 0.177 ± 0.024

SCCLLICIFFIF
protein stability index (Saccharomyces cerevisiae [1]; [3]): 0.317 ± 0.045 | protein stability index (Saccharomyces cerevisiae [1]; [4]): 0.408 ± 0.065 | protein stability index (Saccharomyces cerevisiae [1]; [5]): 0.306 ± 0.015 | protein stability index (Saccharomyces cerevisiae [1]; [6]): 0.391 ± 0.064 | protein stability index (Saccharomyces cerevisiae [1]; [7]): 0.227 ± 0.0076 | protein stability index (Saccharomyces cerevisiae [1]; [8]): 0.231 ± 0.029 | protein stability index (Saccharomyces cerevisiae [1]; [9]): 0.33 ± 0.0056 | protein stability index (Saccharomyces cerevisiae [2]): 0.297 ± 0.0023

IVFFVLFRFWRF
protein stability index (Saccharomyces cerevisiae [1]; [3]): 0.354 ± 0.019 | protein stability index (Saccharomyces cerevisiae [1]; [4]): 0.3827 ± 0.0031 | protein stability index (Saccharomyces cerevisiae [1]; [5]): 0.326 ± 0.038 | protein stability index (Saccharomyces cerevisiae [1]; [6]): 0.46 ± 0.025 | protein stability index (Saccharomyces cerevisiae [1]; [7]): 0.318 ± 0.02 | protein stability index (Saccharomyces cerevisiae [1]; [8]): 0.294 ± 0.017 | protein stability index (Saccharomyces cerevisiae [1]; [9]): 0.442 ± 0.013 | protein stability index (Saccharomyces cerevisiae [2]): 0.32 ± 0.047

ACFLFPSHLLIS
protein stability index (Saccharomyces cerevisiae [1]; [3]): 0.584 ± 0.021 | protein stability index (Saccharomyces cerevisiae [1]; [4]): 0.689 ± 0.0086 | protein stability index (Saccharomyces cerevisiae [1]; [5]): 0.541 ± 0.02 | protein stability index (Saccharomyces cerevisiae [1]; [6]): 0.699 ± 0.021 | protein stability index (Saccharomyces cerevisiae [1]; [7]): 0.165 ± 0.023 | protein stability index (Saccharomyces cerevisiae [1]; [8]): 0.181 ± 0.011 | protein stability index (Saccharomyces cerevisiae [1]; [9]): 0.3022 ± 0.0017 | protein stability index (Saccharomyces cerevisiae [2]): 0.305 ± 0.0099

CIVFVYCLFSCP
protein stability index (Saccharomyces cerevisiae [1]; [3]): 0.206 ± 0.0051 | protein stability index (Saccharomyces cerevisiae [1]; [4]): 0.301 ± 0.038 | protein stability index (Saccharomyces cerevisiae [1]; [5]): 0.213 ± 0.024 | protein stability index (Saccharomyces cerevisiae [1]; [6]): 0.406 ± 0.041 | protein stability index (Saccharomyces cerevisiae [1]; [7]): 0.209 ± 0.0024 | protein stability index (Saccharomyces cerevisiae [1]; [8]): 0.207 ± 0.036 | protein stability index (Saccharomyces cerevisiae [1]; [9]): 0.332 ± 0.027 | protein stability index (Saccharomyces cerevisiae [2]): 0.32 ± 0.0041

GIFVWWFWGCCG
protein stability index (Saccharomyces cerevisiae [1]; [3]): 0.503 ± 0.016 | protein stability index (Saccharomyces cerevisiae [1]; [4]): 0.585 ± 0.051 | protein stability index (Saccharomyces cerevisiae [1]; [5]): 0.38 ± 0.023 | protein stability index (Saccharomyces cerevisiae [1]; [6]): 0.567 ± 0.03 | protein stability index (Saccharomyces cerevisiae [1]; [7]): 0.293 ± 0.02 | protein stability index (Saccharomyces cerevisiae [1]; [8]): 0.321 ± 0.017 | protein stability index (Saccharomyces cerevisiae [1]; [9]): 0.5283 ± 0.0019 | protein stability index (Saccharomyces cerevisiae [2]): 0.399 ± 0.01

FLRLSFLIFPLH
protein stability index (Saccharomyces cerevisiae [1]; [3]): 0.546 ± 0.029 | protein stability index (Saccharomyces cerevisiae [1]; [4]): 0.6295 ± 0.00058 | protein stability index (Saccharomyces cerevisiae [1]; [5]): 0.471 ± 0.03 | protein stability index (Saccharomyces cerevisiae [1]; [6]): 0.583 ± 0.0021 | protein stability index (Saccharomyces cerevisiae [1]; [7]): 0.396 ± 0.026 | protein stability index (Saccharomyces cerevisiae [1]; [8]): 0.409 ± 0.023 | protein stability index (Saccharomyces cerevisiae [1]; [9]): 0.546 ± 0.029 | protein stability index (Saccharomyces cerevisiae [2]): 0.498 ± 0.02

NAPSAIQKNKKC
protein stability index (Saccharomyces cerevisiae [1]; [3]): 0.696 ± 0.016 | protein stability index (Saccharomyces cerevisiae [1]; [4]): 0.6886 ± 0.0037 | protein stability index (Saccharomyces cerevisiae [1]; [5]): 0.649 ± 0.036 | protein stability index (Saccharomyces cerevisiae [1]; [6]): 0.71782 ± 0.00039 | protein stability index (Saccharomyces cerevisiae [1]; [7]): 0.211 ± 0.016 | protein stability index (Saccharomyces cerevisiae [1]; [8]): 0.281 ± 0.037 | protein stability index (Saccharomyces cerevisiae [1]; [9]): 0.515 ± 0.08 | protein stability index (Saccharomyces cerevisiae [2]): 0.433 ± 0.081

CLFSPFCFILFC
protein stability index (Saccharomyces cerevisiae [1]; [3]): 0.0319 ± 0.013 | protein stability index (Saccharomyces cerevisiae [1]; [4]): 0.0391 ± 0.0022 | protein stability index (Saccharomyces cerevisiae [1]; [5]): 0.0898 ± 0.0084 | protein stability index (Saccharomyces cerevisiae [1]; [6]): 0.11 ± 0.012 | protein stability index (Saccharomyces cerevisiae [1]; [7]): 0.285 ± 0.021 | protein stability index (Saccharomyces cerevisiae [1]; [8]): 0.074 ± 0.011 | protein stability index (Saccharomyces cerevisiae [1]; [9]): 0.0686 ± 0.019 | protein stability index (Saccharomyces cerevisiae [2]): 0.12318 ± 9.1e-05

LSFLALLLFFRI
protein stability index (Saccharomyces cerevisiae [1]; [3]): 0.228 ± 0.035 | protein stability index (Saccharomyces cerevisiae [1]; [4]): 0.22 ± 0.061 | protein stability index (Saccharomyces cerevisiae [1]; [5]): 0.363 ± 0.04 | protein stability index (Saccharomyces cerevisiae [1]; [6]): 0.44 ± 0.015 | protein stability index (Saccharomyces cerevisiae [1]; [7]): 0.567 ± 0.017 | protein stability index (Saccharomyces cerevisiae [1]; [8]): 0.372 ± 0.025 | protein stability index (Saccharomyces cerevisiae [1]; [9]): 0.357 ± 0.019 | protein stability index (Saccharomyces cerevisiae [2]): 0.4764 ± 0.0023

FYSLYLSLVCFN
protein stability index (Saccharomyces cerevisiae [1]; [3]): 0.345 ± 0.015 | protein stability index (Saccharomyces cerevisiae [1]; [4]): 0.389 ± 0.0083 | protein stability index (Saccharomyces cerevisiae [1]; [5]): 0.301 ± 0.034 | protein stability index (Saccharomyces cerevisiae [1]; [6]): 0.454 ± 0.0076 | protein stability index (Saccharomyces cerevisiae [1]; [7]): 0.161 ± 0.01 | protein stability index (Saccharomyces cerevisiae [1]; [8]): 0.127 ± 0.016 | protein stability index (Saccharomyces cerevisiae [1]; [9]): 0.256 ± 0.014 | protein stability index (Saccharomyces cerevisiae [2]): 0.224 ± 0.0011

FPLGMFWVCFFV
protein stability index (Saccharomyces cerevisiae [1]; [3]): 0.423 ± 0.026 | protein stability index (Saccharomyces cerevisiae [1]; [4]): 0.464 ± 0.0058 | protein stability index (Saccharomyces cerevisiae [1]; [5]): 0.357 ± 0.03 | protein stability index (Saccharomyces cerevisiae [1]; [6]): 0.512 ± 0.025 | protein stability index (Saccharomyces cerevisiae [1]; [7]): 0.181 ± 0.015 | protein stability index (Saccharomyces cerevisiae [1]; [8]): 0.207 ± 0.023 | protein stability index (Saccharomyces cerevisiae [1]; [9]): 0.357 ± 0.015 | protein stability index (Saccharomyces cerevisiae [2]): 0.264 ± 0.015

FGPRLLRVMRLL
protein stability index (Saccharomyces cerevisiae [1]; [3]): 0.562 ± 0.017 | protein stability index (Saccharomyces cerevisiae [1]; [4]): 0.712 ± 0.018 | protein stability index (Saccharomyces cerevisiae [1]; [5]): 0.639 ± 0.018 | protein stability index (Saccharomyces cerevisiae [1]; [6]): 0.7306 ± 0.0047 | protein stability index (Saccharomyces cerevisiae [1]; [7]): 0.128 ± 0.017 | protein stability index (Saccharomyces cerevisiae [1]; [8]): 0.157 ± 0.044 | protein stability index (Saccharomyces cerevisiae [1]; [9]): 0.207 ± 0.061 | protein stability index (Saccharomyces cerevisiae [2]): 0.22 ± 0.04

CFFMVGFVFYFV
protein stability index (Saccharomyces cerevisiae [1]; [3]): 0.286 ± 0.031 | protein stability index (Saccharomyces cerevisiae [1]; [4]): 0.412 ± 0.027 | protein stability index (Saccharomyces cerevisiae [1]; [5]): 0.291 ± 0.039 | protein stability index (Saccharomyces cerevisiae [1]; [6]): 0.505 ± 0.017 | protein stability index (Saccharomyces cerevisiae [1]; [7]): 0.288 ± 0.014 | protein stability index (Saccharomyces cerevisiae [1]; [8]): 0.294 ± 0.03 | protein stability index (Saccharomyces cerevisiae [1]; [9]): 0.438 ± 0.0094 | protein stability index (Saccharomyces cerevisiae [2]): 0.296 ± 0.014

FLLPILSSSPVL
protein stability index (Saccharomyces cerevisiae [1]; [3]): 0.692 ± 0.063 | protein stability index (Saccharomyces cerevisiae [1]; [4]): 0.742 ± 0.019 | protein stability index (Saccharomyces cerevisiae [1]; [5]): 0.657 ± 0.011 | protein stability index (Saccharomyces cerevisiae [1]; [6]): 0.735 ± 0.012 | protein stability index (Saccharomyces cerevisiae [1]; [7]): 0.685 ± 0.019 | protein stability index (Saccharomyces cerevisiae [1]; [8]): 0.667 ± 0.025 | protein stability index (Saccharomyces cerevisiae [1]; [9]): 0.6913 ± 0.0023 | protein stability index (Saccharomyces cerevisiae [2]): 0.727 ± 0.035

CRLCVFGVWFCG
protein stability index (Saccharomyces cerevisiae [1]; [3]): 0.532 ± 0.033 | protein stability index (Saccharomyces cerevisiae [1]; [4]): 0.535 ± 0.012 | protein stability index (Saccharomyces cerevisiae [1]; [5]): 0.443 ± 0.018 | protein stability index (Saccharomyces cerevisiae [1]; [6]): 0.5751 ± 0.0034 | protein stability index (Saccharomyces cerevisiae [1]; [7]): 0.448 ± 0.037 | protein stability index (Saccharomyces cerevisiae [1]; [8]): 0.412 ± 0.022 | protein stability index (Saccharomyces cerevisiae [1]; [9]): 0.5405 ± 0.0014 | protein stability index (Saccharomyces cerevisiae [2]): 0.499 ± 0.033
